Experiment [1] has as its target T1, recombinant OX40 protein with a His tag (Cat: 10481-H08H, Sino Biological) (UniProt P43489 29-216).
T1 construct: Bought protein; not shown: His tag
T1 sequence (looked up): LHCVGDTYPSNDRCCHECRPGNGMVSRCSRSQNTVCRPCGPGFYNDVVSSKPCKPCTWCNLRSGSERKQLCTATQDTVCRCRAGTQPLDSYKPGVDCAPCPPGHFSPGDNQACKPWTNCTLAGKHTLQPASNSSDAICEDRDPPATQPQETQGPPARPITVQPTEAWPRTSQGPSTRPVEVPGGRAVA
Briefly: SPR (BIAcore T-200), antibody captured by anti-human IgG, OX40-His flowed; Test 1. An excerpt:
(§1) The anti-OX40 antibodies were characterized for their binding kinetics and affinity by SPR assays using BIAcore™ T-200 (GE Life Sciences). Briefly, anti-human IgG antibody was immobilized on an activated CM5 biosensor chip (Cat: BR100530, GE Life Sciences). An antibody with human IgG Fc region was flowed over the chip surface and captured by anti-human IgG antibody. Then a serial dilution of recombinant OX40 protein with a His tag (Cat: 10481-H08H, Sino Biological) was flowed over the chip surface and changes in surface plasmon resonance signals were analyzed to calculate the association rates (ka) and dissociation rates (kd) by using the one-to-one Langmuir binding model (BIA Evaluation Software, GE Life Sciences). The equilibrium dissociation constant (KD) was calculated as the ratio kd/ka.
(In general: Surface plasmon resonance follows binding to a sensor surface in real time, without labels.)

Experiment [2] has as its target T1, recombinant OX40 protein with a His tag …. Nature of the experiment: SPR (BIAcore T-200), antibody captured by anti-human IgG, OX40-His flowed; Test 2.
From the text: as §1

For experiment [3], the target named is T2, full-length human OX40 expressed on HuT78 cells (HuT78/OX40) (human, UniProt P43489 29-277).
T2 sequence: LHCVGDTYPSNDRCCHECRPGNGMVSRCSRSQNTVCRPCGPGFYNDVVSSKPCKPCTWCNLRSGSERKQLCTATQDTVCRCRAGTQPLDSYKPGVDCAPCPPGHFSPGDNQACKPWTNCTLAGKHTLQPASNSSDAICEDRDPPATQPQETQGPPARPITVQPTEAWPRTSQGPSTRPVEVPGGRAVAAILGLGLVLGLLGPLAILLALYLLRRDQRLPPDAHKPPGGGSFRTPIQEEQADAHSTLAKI
Briefly: cell-based or functional assay.

Experiment [4] deals with T1, recombinant OX40 protein with a His tag …. Briefly: Biacore SPR (set-up not named on the sheet; by Example 4 antibody captured, OX40-His flowed).

B1: 445-3 IgG4 (445-3 with the Fc domain of human IgG4 with S228P and R409K mutations) (antibody, V domains shown)
VH: QVQLVQSGAEVKKPGSSVKVSCKASGYKFTSYIIHWVRQAPGQGLEWMGYINPYNEGTRYNQKFQGRVTLTADKSTSTAYMELSSLRSEDTAVYYCARGYYGSSYAMDYWGQGTTVTVSS
VL: DIQMTQSPSSLSASVGDRVTITCRASQGISNYLNWYQQKPDGAIKLLIYDASTLYSGVPSRFSGSGSGTDFTLTISSLQPEDFATYYCQQYSKLPYTFGGGTKVEIK
One may read the koff as the first-order rate constant of dissociation. The term kon denotes a measure of how fast the partners come together. In the case of B1, in experiment [1], the koff came to 0.00161 s⁻¹ and the kon stood at 161000 M⁻¹ s⁻¹.

B2: humanized anti-OX40 monoclonal antibody 445-3 (antibody, V domains shown)
VH: B1 VH
VL: B1 VL
notes: Human IgG1 wild type format
As for B2, in experiment [2], the koff was 0.00159 s⁻¹ and the kon is 163000 M⁻¹ s⁻¹. In experiment [3], the “ADCC, LDH release, NK92MI/CD16V effector cells and HuT78/OX40 target cells, EC50” value came out at 27 ng/mL; the “IL-2 production of HuT78/OX40 cells co-cultured with HEK293/OS8Low-FcγRI cells (ELISA), EC50” value is 0.06 ng/mL. Moreover, in experiment [1], the koff turned out to be 0.00167 s⁻¹ and the kon stood at 182000 M⁻¹ s⁻¹. Further, in experiment [4], the koff amounted to 0.00148 s⁻¹ and the kon came out at 174000 M⁻¹ s⁻¹.

These data come from patent US20230002500A1 (BEIGENE, published 2023).
